In article PMC2952662 one finds Kd and koff data, which are given here for one substance.

As a reminder, the Kd is a measure of binding affinity in units of concentration. Low values mean higher affinity, high ones lower affinity. A word on the koff: it is the first-order rate constant of dissociation. A low value points to a long-lived complex.

The target in the experiment is N-terminally His6-tagged Akt1 PH domain S2-S128 construct (human). The experiment in a line: SPR.

“Akt inhibitor VI, a 15 residue peptide derived from the oncogene TCL1” registered a dissociation constant Kd of 1400 nM and a koff of 0.000116 s⁻¹.
